Assay results: paper PMC5892705 (Science signaling, 2017)

Tests used:
[1] = molecular target: T1, murine oxytocin receptor (mouse, UniProt P97926 1-388); assay: cell-based or functional assay
T1 sequence: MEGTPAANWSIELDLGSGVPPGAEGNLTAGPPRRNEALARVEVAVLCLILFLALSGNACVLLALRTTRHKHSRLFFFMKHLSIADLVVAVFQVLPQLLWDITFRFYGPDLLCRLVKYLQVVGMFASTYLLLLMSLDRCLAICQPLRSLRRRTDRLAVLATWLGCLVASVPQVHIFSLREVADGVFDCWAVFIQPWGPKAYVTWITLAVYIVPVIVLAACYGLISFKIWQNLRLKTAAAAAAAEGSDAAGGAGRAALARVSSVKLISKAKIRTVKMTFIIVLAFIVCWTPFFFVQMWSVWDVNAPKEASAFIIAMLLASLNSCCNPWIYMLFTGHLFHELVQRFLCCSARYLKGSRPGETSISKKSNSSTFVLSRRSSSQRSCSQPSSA

[2] = molecular target: human vasopressin V1a receptor (human, UniProt P37288 1-418); assay: cell-based or functional assay
Chain of human vasopressin V1a receptor (P37288 whole entry): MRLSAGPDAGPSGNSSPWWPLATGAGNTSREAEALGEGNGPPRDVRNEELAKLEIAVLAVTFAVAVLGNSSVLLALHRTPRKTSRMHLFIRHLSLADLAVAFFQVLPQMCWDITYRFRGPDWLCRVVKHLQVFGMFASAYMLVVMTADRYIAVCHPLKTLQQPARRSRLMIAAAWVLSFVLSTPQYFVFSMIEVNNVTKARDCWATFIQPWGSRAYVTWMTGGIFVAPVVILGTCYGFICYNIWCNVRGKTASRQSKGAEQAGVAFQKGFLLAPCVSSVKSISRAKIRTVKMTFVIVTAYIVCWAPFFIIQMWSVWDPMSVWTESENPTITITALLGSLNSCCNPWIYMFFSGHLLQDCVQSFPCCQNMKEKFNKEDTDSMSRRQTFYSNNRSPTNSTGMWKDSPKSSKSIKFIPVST

[3] = molecular target: T2, human oxytocin receptor (human, UniProt P30559 1-389); assay: cell-based or functional assay
T2 sequence: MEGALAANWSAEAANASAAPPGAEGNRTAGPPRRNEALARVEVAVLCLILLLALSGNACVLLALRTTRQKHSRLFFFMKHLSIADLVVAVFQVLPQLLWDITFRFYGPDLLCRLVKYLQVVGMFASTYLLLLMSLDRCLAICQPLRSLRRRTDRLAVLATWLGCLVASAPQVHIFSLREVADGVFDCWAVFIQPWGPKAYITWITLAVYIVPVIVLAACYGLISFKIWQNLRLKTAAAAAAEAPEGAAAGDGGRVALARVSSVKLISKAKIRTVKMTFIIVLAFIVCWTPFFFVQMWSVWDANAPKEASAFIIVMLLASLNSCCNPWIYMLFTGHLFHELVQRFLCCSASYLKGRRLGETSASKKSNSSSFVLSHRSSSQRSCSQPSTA

[4] = molecular target: murine vasopressin V2 receptor (mouse, UniProt O88721 1-371); assay: radioligand binding
Chain of murine vasopressin V2 receptor (O88721 whole entry): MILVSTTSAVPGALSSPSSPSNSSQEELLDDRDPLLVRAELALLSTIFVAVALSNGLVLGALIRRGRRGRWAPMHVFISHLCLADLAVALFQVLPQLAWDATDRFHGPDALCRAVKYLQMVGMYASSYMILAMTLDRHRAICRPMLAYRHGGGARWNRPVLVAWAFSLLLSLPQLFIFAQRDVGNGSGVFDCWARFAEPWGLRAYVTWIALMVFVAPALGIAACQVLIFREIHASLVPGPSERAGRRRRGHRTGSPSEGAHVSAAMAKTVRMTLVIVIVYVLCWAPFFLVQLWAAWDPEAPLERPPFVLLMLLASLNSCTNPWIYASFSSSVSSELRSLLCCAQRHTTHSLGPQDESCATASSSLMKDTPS

- HTRF IP1 accumulation in transfected HEK293 cells, Emax [1]: 43%
- FLIPR Ca2+ mobilization, EC50 [2]: > 10000 nM
- HTRF IP1 accumulation in transfected COS-1 cells, EC50 [3]: 38 nM
- tissue bath, contraction amplitude of strips of pregnant human myometrium, EC50 [3]: 5.89 nM
- Ki1 (bi-phasic binding curve) [4]: 0.71 nM
B1: [Se-Se]-OT-OH (peptide)
chain: UYIQNUPLG
modifications: selenocysteine at positions 1 and 6, joined by a diselenide bond; C-terminal acid instead of the amide
